{
  "source": "patent US11820827B2",
  "about": "“Methods of treating myelodysplastic syndrome and acute myeloid leukemia with nonfucosylated anti-CD70 antibodies” (Seagen Inc., priority 2019, dated 2023)",
  "key": {"[1]": {"target": "T1, high affinity human FcγRIIIa receptor (158V) (Homo sapiens, UniProt P08637, F176V)", "T1 construct": "expressed in transfected cells; host or cells: CHO", "T1 sequence (P08637 17-254 F176V)": "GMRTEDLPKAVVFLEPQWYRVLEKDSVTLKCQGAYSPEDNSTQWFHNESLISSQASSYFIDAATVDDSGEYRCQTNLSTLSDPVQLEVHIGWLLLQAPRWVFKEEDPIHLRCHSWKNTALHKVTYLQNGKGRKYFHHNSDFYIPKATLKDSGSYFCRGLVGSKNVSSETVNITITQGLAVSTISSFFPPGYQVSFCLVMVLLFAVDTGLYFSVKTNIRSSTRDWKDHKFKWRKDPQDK", "assay": "CHO-FcγRIIIa binding assay by flow cytometry (human receptor)", "conditions": "compared with SGN-70", "method": "While BLI methodology is used to assess receptor affinity by monitoring binding kinetics, it is primarily set to monitor monovalent binding. To add to BLI data sets, flow cytometry was also performed (FIGS. 2A and 2B).\nThe CHO-FcγRIIIa binding assay was conducted as follows: • 1. Thaw cells: Cells were thawed on 11 Jun. 2019, and cultured in culture medium for 1 week to recover from freeze-thaw.\n• 2. Wash: 60 million cells were washed 1× in PBS in 50-mL tubes. Cells were counted again and resuspended at 2.2×10^6/mL. Then 0.1 mL was pipetted per well • 3. Make 10× dilutions of antibody: The 10× dilutions were prepared (3 mg/mL, 1 mg/mL, 0.3 mg/mL, 0.1 mg/mL, 0.03 mg/mL, 0.01 mg/mL, 0.003 mg/mL, 0.001 mg/mL, and 0.0003 mg/mL in the dilution plate).\n• 4. Aspirate: Wash was aspirated in wells and 100 μL of the corresponding antibody dilutions was pipetted with a multichannel pipet. The corresponding concentrations were 300, 100, 30, 10, 3, 1, […] μg/mL in triplicate. The concentrations were decreased vertically down the 96-well round bottom plate. • 5. […] Analyze samples: Samples were analyzed by flow cytometry in high throughput sampler (HTS) mode on the Attune. Median fluorescence intensity (MFI) was graphed (geomean), and equilibrium dissociation constant (KD) for each was calculated in PRIZM"}, "[2]": {"system": "MOLM-13 CD70+ AML cell line", "assay": "ADCC assay with NK effector cells, MOLM-13", "format": "cell-based, human", "conditions": "effector-to-target ratio 10:1, 4 h", "method": "ADCC activity was evaluated using two CD70+AML cell lines as an ADCC target (FIGS. 3A and 3B). The AML cell lines, MOLM-13 (FIG. 3A) and NOMO-1 (FIG. 3B), were labeled and mixed with titrations of test antibodies or isotype control. Effector cells were isolated from cryopreserved normal donor PBMC using the EasySep Human NK Cell Enrichment Kit (Stem Cell Technologies). Effector cells were added at an effector-to-target cell ratio of 10:1 with […]. After a 4-h incubation, the percent specific cell lysis was calculated.\nAML cell lines were grown in appropriate growth medium while incubating at 37° C. in 5% CO2. Suspended cells were counted using ViCell XR cell counter. The required volume of cells was mixed with fresh growth medium and plated at seeding densities of 0.5 M/mL.\nThe following protocol was used to assess ADCC activity: • 1. Two vials of huPBMCs were thawed in the 37° C. waterbath and resuspended in 1% FBS-RPMI media. Cells were spun down and then NK cells were isolated using the EasySep human NK cell enrichment kit following the manufacturer's protocol. • 2. […] Absorbance per well was measured using the SpectraMax 190 plate reader at 490 nm and the acquired values were converted to text file and exported to Excel and into GraphPad Prism for further data analysis. • 9. […]"}, "[3]": {"system": "CD8 T cells in PBMCs", "assay": "CD8 T cell depletion in PBMCs", "format": "cell-based, human", "conditions": "24 hours", "method": "At the end of the experiment cells were stained with Zombie Aqua Viability Dye and total viable Treg naïve and memory CD4 and CD8 T cell numbers were assessed. […] Fucosylated (WT Clone 13 IgG1) and nonfucosylated (SEA Clone 13 IgG1) antibodies targeting TIGIT were used as positive controls (FIG. 4E-4H)."}, "[4]": {"system": "NOMO-1 CD70+ AML cell line", "assay": "CDC with normal human serum, NOMO-1", "format": "cell-based", "conditions": "normal human serum not heat inactivated", "method": "AML cell lines positive for CD70 were fluorescently labeled and treated with increasing concentrations of CD70 directed antibodies. Cells were then exposed to human compliment and lysis determined as release of fluorescent dye.\nThe following protocol was used to assess CDC activity on AML cell lines: • 1. Cells were incubated with […] anti-CRP monoclonal antibodies mix (anti-hCD46, anti-hCD55, anti-hCD59) for 30 minutes on ice. • 2. Cells were washed and plated (200,000 cells/well) in media containing non-heat-inactivated serum, Sytox Green (Life technology), and antibodies, which were added at the indicated final concentration, for 2 hours at 37° C. • 3. Cell dead was quantified by detecting Sitox Green fluorescent signal on an Envison plate reader (Perkin Elmer) and normalized over positive control (1% Triton X-100 treated cells)."}},
  "data": [
    {"molecule": "SEA-CD70: humanized, nonfucosylated monoclonal IgG1 antibody targeting CD70 (nonfucosylated h1F6) (antibody, chains of the INN, looked up, V domains shown, nonfucosylated) VH: QVQLVQSGAEVKKPGASVKVSCKASGYTFTNYGMNWVRQAPGQGLKWMGWINTYTGEPTYADAFKGRVTMTRDTSISTAYMELSRLRSDDTAVYYCARDYGDYGMDYWGQGTTVTVSS VL: DIVMTQSPDSLAVSLGERATINCRASKSVSTSGYSFMHWYQQKPGQPPKLLIYLASNLESGVPDRFSGSGSGTDFTLTISSLQAEDVAVYYCQHSREVPWTFGQGTKVEIK", "values": [
      {"measurement": "binding affinity to human FcγRIIIa on CHO cells", "setting": "[1]", "result": "bound with higher affinity than SGN-70"},
      {"measurement": "lysis of target cells in ADCC assay", "setting": "[2]", "result": "induced lysis of two CD70 positive AML cell lines in a dose-dependent fashion"},
      {"measurement": "CD8+ cell depletion", "setting": "[3]; V/V high affinity donor", "result": "Neither fucosylated nor nonfucosylated anti-CD70 antibodies depleted CD8+ cells"},
      {"measurement": "CD8+ cell depletion", "setting": "[3]; low affinity (F/F 158) donor", "result": "Neither fucosylated nor nonfucosylated anti-CD70 antibodies depleted CD8+ cells"},
      {"measurement": "cell lysis by complement fixation", "setting": "[4]", "result": "lysed in an antibody-specific, dose-dependent manner"}
    ]}
  ]
}
